Source: the nanobody polyreactivity screen of Harvey et al. (2022)

Assay: yeast display, Sf9 membrane polyspecificity reagent, FACS + sequencing; frameworks hold sequencing errors
Outline: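 Synthetic nanobody libraries on Saccharomyces cerevisiae BJ5465 were galactose-induced for 36–48 hours, stained 1 hour at 4 °C with 10% biotinylated, detergent-solubilized Sf9 membrane reagent and enriched on streptavidin microbeads. FACS then separated cells into low and high (top ~1%) gates by anti-HA (expression) and streptavidin (reagent binding) fluorescence. Genes were colony-PCR amplified, MiSeq 2 × 250 sequenced and CDR-length filtered. A clone's polyreactivity label is that of its gate of origin.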

Sequence | polyreactivity (PSR sort gate)
QVQLVESGGGLVQAGGSLRLSCAASGRIFLGNAMGWYRQAPGNERELVADITTDGSTYYADSVKGRFTISRDNAKNTVYLQMNSLKPEVTAVYYCAAGEHPSFRSSYKYDYWGQGTQVTVSS | low polyreactivity
QVQLVESGGGLVQAGGSLRLSCAASGRIFRINTMGWNRQAPGKERELVAAIRTSGSSTYADSVKGRFTISRDNAKNTVYLQMNSLKPEDTAVYYCNTKYPGRGYYWGQGTQVTVSS | high polyreactivity
QVQLVESGGGLVQAGGSLRLSCAASGRIFYRYARGWYRQAPGKERELVAAITRGGRTNYADSVKGRFTISRDNAQNTVYLQMNSLKPEDTAVYYCRPLWYGFDYWGQGTQVTVSS | high polyreactivity
QVHLVESGGGLVLAGGSLRLSCAASGSTFIWNAMGWYRQAPGKERELVAAIRRGSSTNYADSVKGRFTISRDNAKNTVYLQMNSLYPEDTAVYYCAKKPVTTDVSSETFFLEMDYWGQGTQVTVSS | low polyreactivity
QVHLVESGGGLVQAGGSLRLSCAASGRIFDYYTMGWYRQAPGKERELVAAITWIGGSTYYEDSVKGRFTISRDNAKNTVYLQMNSLKPEDTAVYYCYAEGTALPYRADTVGGYYYWGQGTQVTVSS | low polyreactivity
QVQLVESGGGLVQAGGSLRLSCAASGSTFIYNTMGSYRQAPGKERELVAAISGSGGRTYYADSVKGRFTISRDNAKNTVYLQMNSLKPEDTAVYYCAARYYTKLYWGQGTQVTVSS | high polyreactivity
QVQLVESGGGLDQAGRSLRLSCAASGRTDVTYAMGWYRQAPGKEREFVAAISASGGTTYYADSVKGRFTISRDNSKNTVYLQMNSRKPEDTAVYYCAADIRGTVYLSSFWMEYWGQGTQVNVSS | low polyreactivity
QVQLVESGGGLVQAGGSLRLSCAASGRILNWNVMGWYRQAPGKERELVAGISSDGSTYADSVKGRFTISRDNAKNTVYFQMNSLKPEDTAVYYCAADRVGLSRGYDYWGQGTQVTVSS | low polyreactivity
HGQLVESAAGLVQAGGSLRLSGAASGLIFYDNMGWYRQAPAKDRELVAAISSSGGSTSYADSVKGRFTISRDNAKNTFYLQMNSLKPEDTAVYYCAADSYPAYLGFVGFDYWGLGTQVTVSS | low polyreactivity
QVHLVESGGGLVQAGGSLRLSCAASGRTFGWNVMGWYRQAPGKERELVAAISGSGGSTYYADSVKGRFTISRDNAKNTVYLQMMSLKPEDTAVYYCAKEYPWMPRSYEYWGQGTQVTVSS | low polyreactivity
QVQLVESGGGLVQAGGSLRLSCAASGRTFLRYAMGWSRQAPGTETELVAAISSDGSTNYADSVKGRFTISRDNAKNTVYLQMNSLKPEDTAVYYCDADPQKWYTGYDYWGQGTQVTVSS | low polyreactivity
QVQLVESGGGLVQAGGSLRLSCAASGFIFYINAMVWYRQAPGKERELVAAITNVGSTNYADSVKGRFTISRDNAKNTVYLQMNSLKPEDTAVYYCAAEKGLVALVYKYDYWGQGTQVTVSS | low polyreactivity
QVQLVESGGGLVQAGGSLRLSCSASGSIFAWYGRGWYRQSPGKESELVAAITSTGSTYYADSVKGRFTISRDNAKNTVYLQMTSLKPEDTAVYYCNAYYVYLWRPGVYWGQGTQVTVSS | low polyreactivity
QVHLQESGGGLVQAGGSLRLSCAASGTISQEDWMGWYRQAPGKEREFVAAIGLGSNTNYADSLKGRFTISRDNAKNSVYLQKNSLKPEDTAVYYFAVSVWQYSDHVYRGQGTQVTVSS | low polyreactivity
QVQLVESGGGLVQAGGSLRLSCAASGSNSRYAMGWYRHARGKERELVRAITRSGGSTHYADSVKGRFTISRDNAMNTVYLQMNSLKPEDTAVYYCATRYYRGVIRYPYDSWGQGTQVTLSS | high polyreactivity
QVQLVESGGGLVQAGGSLRLSCAASGFIFRQYAMGWYRQAPGKERELVAAISWSGGSTYYADSVKGRFTISRDNAKNTVYLQMNSLKPEDTAVYYCNVLTPPTDYDYWGQGTQVTVSS | high polyreactivity
QVQLVESGGGLVQAGGSLRLSCAASGSIFPGYAMGWYRQAPGKERELVATITWSGGSTYYADSVKGRFTISRDNAKNTVYLQMNSLIPEDTAVYYCNADSNWYYQWNYYGLYDYWGQGTQVTVSS | low polyreactivity
QVQLVESGGGLVQAGGSLRLSCAASGRIFRGYAMGLYRQAPGKEREFVAAISWSGGDTYYADSVKGRFTISRDTAKNTVYLQMNSLKPEDTAVYYCATEYRLIPGPFVWPYDYWGQGTQVTVSS | high polyreactivity
QVQLVESGGGLVQAGGSLRISCAASGFTFPSYAMGWYRQAAGKERELVAAINRRGGSTNYADSVKGRFTISRDNAKNTDYLQMNSLKPEDTAVYYCAKQPRLGKYEYYYWGQGTQVTVSS | high polyreactivity
QVQLVESGGGLVQAGGSLRLSCAASGSTFSRYAMGWYRQAPGKERELVAAISSRGGSTYYADSVKGRFTISRDNAKNTVYLQMNSLKPEDTAVYYCAARPYYYIVRGTEYDYWGQGTQVTVSS | high polyreactivity
QVQLVESGGGLVQAGGSLRLSCAASGRTFYYYAMGWYRQAPGKERELVAAINSGGTTSYADSVKGRFTISRDNAKNTVYFQMNSLKPEDTAVYYCAASDYGFPEYLTAYFYWGQGTLVTVSS | low polyreactivity
QVQLVESGGGLVQAGGILRLSCAASGRIFTPYTMGWYRQAPGKERELVATITWSGGSTYYADSVKGRFTISRDNAKNTVYLQMNSLKPEDTAVYYCAARPIYVWAEYDYWGQGTQVTVSS | low polyreactivity

Sequence | polyreactivity (PSR sort gate)
QLQLVESGGGLVQAGGSLRLSCAASGYTFKTNDMGWYRQAPGKEREFVAAIDSGGNTYYADSVKGRFTISRDNAKNTVYLQMNSLKPEDTAVYYCAAYRDYQNDYWGQGTQVTVSS | low polyreactivity
QVQLVESGGGLVQAGGSLRVSCAASGLTSIHYMGWYRQAPGKERELVATITSSTGSTYYADSVKGRFTISRDNAKNTVYLQMNSLKPEDTAVDYCAAESFGADGPYQPSYDYWGQGTQVTVSS | low polyreactivity
QVQLVESGGGLVQAGGSLRLSCAASGRIFKSYVMGWYRQAPGKERELVAAISITGGSTYYADSVKGRFTISRDNAKNTVYLQMNSLKPEDTAVYYCAAEWFGSVQPAYDYWGQGTQVTVSS | high polyreactivity
QVHLVESGGGLVQAGGSLRLSCAASGIIFPWTAMGWYRQAPGKERELVAAITSRGSNTYYADSVKGRFTISRDNAKNTVYLQMNSLKPEDTAVYYCAVDSFYYGKYGYWGQGSQVTVSS | high polyreactivity
QVQLVESGGGLVQAGGSLRLRCAASGIIFPYYTMGGYRQAPGKERELVARITNGGRTYYADSVKGRFTISRDNAKNTVYLQMNSLKPEYTAVYYCIAGRYYIGGYWGQGTQVTVSS | high polyreactivity
QVQLVESGGGLVQAGGSLRLSCAASGSTFPTNAMGWYRQAPGKEREFVADITIRGGGTAYADSVKGRFTISRDNAKNTVYLQMTSLKPEDTAVYYCARSKSTELKRLLYDSWGQGTQVTVST | low polyreactivity
QVQLVESGGGLVQAGGSLRLSCAASGRTFRSYAMGWYRQAPGKEREFVAAISRSGASTRYADSVKGRFTISRDNAKNTVYLQMNSLKPEDTAVYYCAAVWPDVRGYDYWGQGTQVTVSS | high polyreactivity
QVQLVESGGGLVQAGGCLRLSCAASGRILYYYAMGWYRQAPGKERELVAAINSSGGSTYYADSVKGRFTISRDNAKNTVYLQMNSLKPEDTAVFYCAALRGNVLWYPPSYFRYDYWGQGTQVTVSS | high polyreactivity
QVQLVESGGGLVQAGGSLRLSCADSGFIFGNYAMGWYRQAPGKERELVAGISGSGGSTYYADSVKGRFTISRDNAKNTVYLQMNSLKPEDTAVYYCNAGWHPSQGRFEYWGQGTQVTVSS | high polyreactivity
QVQLVESGGGLVQAGGSLRLSCAASGSTFYRNALGWYRQAPGKERELVARISSRGGRTSYADSVKGRFTISRDNAKNTVYFQMNSLKPEDTAVYYCAADYYVNRIQRYDYWGQGTQVTVSS | high polyreactivity
QVQLVESGGGLVQAGGSLRLSCAASGYTFSGYAMGWYRQAPGKERELVAAISKRGGSTYYADSVKGRFTISRDNAKNTVYLQMNSLKPEDTAVYYCAKRSGYRSHYGYWGQGTQVTVSS | high polyreactivity
QVQLVESGGGLVQAGGSLRLSCAASGRIFTGNAMGWYRQAPGKERELVASITYSDGSTYYADSVKGRFTISRDNAKNTVYFQMNSLKPEDTAVYYCAADILWGQGTQVTVSS | low polyreactivity
QVQLVESGGGLVQAGGSLRLSCAASGFIFWYYAMGWYRHAPGKERELVAVISSGSSTHYADSVKGRFTISRDNAKNTVYLQMNSLKPEDTAVDYCAARIRTRYFTGYYYWGQGTQVSVSS | high polyreactivity
QVQLVQSGGGLVQAGGSLRLSCDASGSMFLVYAMGWYRQAPGKERELVAAISRSGRTYADSVKGRFTISRDNAKNTVYLQMNSLKPEDTAVYYCAAGTKRRFEGDYWVQGTQVTVSS | high polyreactivity
QVQLVESGGGLVQAGGSLRLSCAASGRIFSGYAMGWYRQAPGKERELVAAISGGGSTNYADSVKGRFTISRDNAKNTVYLQMNSLKPEDTAVYYCATQYGHYPYWLYKYDYWGQGTQVTVSS | low polyreactivity
QVQLVESGGGLVQAGGSLRLSCAASGLTFPYYVMGWSRQAPGKERELVAAITTDDRTYYADSVKGRFTISRDNAKNTVYLQMNSLKPEDTAVYYCNVVIYYFNSRTVYYDYDYWGQGTQVTVSS | high polyreactivity
QVQLVESGGGLVQAGGSLRLSCAASGFTFTYYVMGWYRQAPGKERELVAAISVSGGSTYYADSVKGRFTITRDNAKNTVYLQMNSLKPEDTAVYYCAARSPFYSYTPGYEYWGQGTQVTVSS | high polyreactivity
QVQLVESGGGLVQAGGSLRLSCAASGGTFGVYTMGWYRQAPGKERELVAAISWSGGSTYYADSVKGRFTISRDNAKNTVYLQMNSLKPEDTAVYYCAARLKYGRIRVDHWGQGTQVTVSS | high polyreactivity
QVQLVESGGGLVQAGGSLRLSCAASGSIFGWYAMGWYRQAPGKERELVAAAIDYRDDSTYYADSVKGRFTISRDIAKNTVYLQMNSLKPEDTAVYYCAAEKDGDWRGYDYWGQGTQVTVSS | low polyreactivity
QVQLVESGGGLVQAGGSLRLSCAASGSTIGSYAMGWYRQAPGKERELVAAITWNGGGTYYADSVKGRFTISRDNAKNTVYLQMNSLKPEDTAVYYCAADGWFGRVAPGSDYWGQGTQVTVSS | low polyreactivity
QVQLVESGGGLVQAGGSLRLSCAASGIIFGYSAMGWYRQAPGKERELVAAITRSGSSTYYADSVKGRFTISRDNAKNTVYLQMNSLKPEDTAVYYCAADNFYQSYGYWGQGTQVTVSS | low polyreactivity
